# Assay results reported in the supplement of paper PMC12042874.
# ± gives the uncertainty stated by the source.
# Assay: amyloid nucleation score (Sup35N fusion, yeast selection) (log enrichment); library NNK3; higher = more nucleation; inactive = no reads after selection
# Outline: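 The nucleation score is the log enrichment of output over input reads, calculated with DiMSum and centred on the mode score of non-aggregating sequences. Sequences with under 100 input reads were excluded. Reads came from Illumina sequencing of plasmid inserts from psi-negative yeast expressing Sup35N fused to peptides of 20 random codons, induced 24 hours with 100 μM copper sulfate and grown 7 days at 30°C without adenine and uracil.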
row,Substance,amyloid nucleation score
1,NEIQVKQRYVPPVSVSFVWW,1.59 ± 0.086
2,SRMTIVKSWKRMLGRLLMRL,inactive
3,IERCVFAFCYCSLGQSAKSF,1.49 ± 0.14
4,VGYFV,inactive
5,RDYILKT,inactive
6,VVGIKKDRNNTYDSSWLASC,inactive
7,FTMNQGSDVEVFLSSMF,inactive
8,ILYVLCIFLCGAAIFSLTVL,inactive
9,FFPCTGVRHSRDIAVV,inactive
10,FDYLLYQLCYVYRTYKTVRR,inactive
11,SGSWVNDSESAEDLT,inactive
12,FSVFPLFVTGFQDILWVDLL,inactive
13,IFNALCYTWESRFLRTEVVS,inactive
14,AVFGCFWFAMGLSFLYAKSL,inactive
15,FRKTGFSFVFLIVDEYFICN,inactive
16,TGLLLIRIKGH,inactive
17,SGWLA,inactive
18,VRKPECSVVWVNQCWVQPPY,2.15 ± 0.062
19,EYELESESKCPLDFAFIKKG,inactive
20,TVLYLNDDIATYHRMLVFRV,inactive
21,CIRGVQNTGCGAQACYPVCR,inactive
22,NGFSTVTSSPGLCFLYRMFI,inactive
23,TEGLKIFDDET,inactive

row,Substance,amyloid nucleation score
1,LFRDKDVDVVSSN,inactive
2,QKMFVQDLILVLPVISRLV,inactive
3,VLAMIVRHRKYKIDFIFMLD,inactive
4,TSSFVKSFRCYSAIG,inactive
5,DRPSWNMRSLNFSGQSVR,-0.59 ± 1.4
6,DVFSNMSWYYCNVIWNAYDM,0.196 ± 0.52
7,IVGDRSLRSDEFSCC,inactive
8,LPYYCSIDAVMCREPTGLGS,inactive
9,LSSLVSFVITQLRLLMKTER,inactive
10,LSSTV,inactive
11,STCKKNWNIARRI,inactive
12,VSVRVDLILKVVRRSSVWFT,inactive
13,PSFLNSMGS,inactive
14,FNIYCVGPNYATRGAGWVLL,1.78 ± 0.095
15,MQLIIIWATRK,1.43 ± 0.14
16,MLAHGFCQVSEWSRALFLRV,-0.244 ± 1.5
17,TWWFK,-0.234 ± 0.28
18,EDAWMIVRISGC,inactive
19,EGVFHACDSTGT,-0.737 ± 1.5
20,MILYPSYLPYLRMVDTTY,inactive
21,SCFRFKTQLTIGLVEEISCA,inactive
22,YFNRNQYVDDTCG,inactive
23,TAWLSSNFVSDRHCGYGSDC,inactive

row,Substance,amyloid nucleation score
1,DTVMRSVLEAIVYINKIFVR,inactive
2,VQSTVVQVGDWY,inactive
3,RDEVLNSHFIVGSRMRSNVA,1.31 ± 0.14
4,QVKLGRTLTSGQGFTQLHSV,-0.852 ± 2.5
5,LCLFLSQMFSNRYEIFPLFV,inactive
6,AWMCIHLYICCMILCGRRGW,inactive
7,KFMCSNAF,inactive
8,WSRLDMMLRLLAVLLPVRLD,inactive
9,PLSMSHVGAGLKF,inactive
10,VEGATWHTWSCVNHVVVKGF,inactive
11,ICRQS,inactive
12,ANSSRDMCSLLVLVRGTQ,-0.385 ± 0.96
13,RMCGSCYLCYCRERRGYTAF,inactive
14,LLCFVDVSYVHNA,0.834 ± 0.23
15,WVVRYMDYSLMD,inactive
16,WMPDPRVCQKMFVMCKHSP,inactive
17,NLLSDSVDMYINAGVDILLA,inactive
18,LNMLKVLFSWIRYDGNQ,inactive
19,RDGSQGEFWVLALARLGGTS,0.311 ± 0.48
20,THSDYSEPRI,inactive
21,SNHVWFDLFGEYDASCFCTV,inactive
22,KDSCCVGSRNAHFECYFEVA,inactive
23,QPAFPWTYVFLLYHGW,inactive

row,Substance,amyloid nucleation score
1,YFFSVAISKVYDFSVKSRCT,1.98 ± 0.086
2,YFMVEVMLILMSDGAFYTFC,inactive
3,LVLGWWAIFGVDYGHSSYLL,inactive
4,DVCGFYIHFRFTNKYQGVAS,inactive
5,FFLRSGCTIWTNSK,inactive
6,YTNHFVDLGMVKLVLFTWNM,1.63 ± 0.11
7,CDFYVNGTGPSETRWNSKEH,inactive
8,SKVKDDALPTTILCGTYNLN,inactive
9,RFRNYGLSGR,-0.38 ± 0.89
10,CRSWVPMGGDLHRGWSLANK,inactive
11,GNLLMYHGIWGTNALEDRYL,inactive
12,MLEGQSSCRVITDLARL,inactive
13,FHSWIFQTISLPGQGYRLQ,inactive
14,GAIWERLDIREM,inactive
15,CYQVWPARLSILHARLLGGR,inactive
16,IRESFINGVYMVVSEFKCFT,inactive
17,IMHIYYTYSIPLCDRRGRSY,0.856 ± 0.26
18,ACFLIYYLR,inactive
19,NVIISQA,inactive
20,ACGFSFF,-0.264 ± 0.98
21,GRCMEGS,inactive
22,LMAVHMGMCMHEILHAVSLR,inactive
23,IGTTEQ,inactive

row,Substance,amyloid nucleation score
1,TFLLLYGIMDSNVPTVRHAL,0.846 ± 0.15
2,NIWLP,inactive
3,SKVKFILTRVPLFLLRIAES,inactive
4,GSNQMPDPPHWPRDYNAEKR,inactive
5,SSVSFVITGPVAFVWNQGLV,2.56 ± 0.083
6,HGFSVTILTRVLTVGNSRRS,inactive
7,WWRKPLTFNDRIWRLRKHRS,inactive
8,VSLILFGRIFFHL,inactive
9,NNDMCLYLTGRRFKG,inactive
10,HIWVCHWRYYVIMLPRSAWI,inactive
11,PAQSQAYVLKAGGPRLDGRV,inactive
12,TITKVNFWEQVRRLLQSGTQ,inactive
13,YVVNFVLL,2.43 ± 0.085
14,LSDDMPKV,inactive
15,VRQKALRNPQL,inactive
16,PVVRQRNALILCLSHMSCLE,2.15 ± 0.063
17,CWFLVTMGYAGCFFSPVTQL,inactive
18,NFIALSLFKLVCSAEICWLN,0.617 ± 0.39
19,LAVSGKEHAK,inactive
20,YSRLTLVAEPFYNMGVKNLM,inactive
21,RILLFMHPMSICMSP,inactive
22,WLSGACEPPF,0.718 ± 0.28
23,AVLKILFVRPCYVINMSLKY,0.199 ± 0.64

row,Substance,amyloid nucleation score
1,EFMAGNDSRIQCSRIRGCYG,inactive
2,TRPESETHGMMR,inactive
3,RSYFYTCDSLDALHVHLASH,inactive
4,IQCYNLSLPAGGEKLVRKRV,inactive
5,LVEMNFLAVINRFICSSSLP,inactive
6,DSSKWHAMYMLTKMKMTGWL,inactive
7,YISNMLTLSPAKVSHKSWVI,0.186 ± 0.29
8,DYGSFMYSLTSCMVNYWYMA,inactive
9,RYVTCNLEINTWDRVRGWHV,1.16 ± 0.16
10,HSNVGCKFAIKYSLAFCGVK,inactive
11,FINAVAIRMIILVSRTRPTF,0.984 ± 0.12
12,NSCLRLSSHRMMFLAIAVTC,inactive
13,FLVLLKTCYDSRPWP,1.72 ± 0.094
14,NAGYCVRTRSLGESLSIVRK,inactive
15,LFHNCHGFFHTNNVPFVRWP,inactive
16,GRRMSNLEKPVLLDIKANFL,inactive
17,FTIGNTA,inactive
18,LYSCRFMNLKTYLVL,inactive
19,RTMAFLIFS,0.172 ± 0.56
20,IVDASGQRAMGSDFIHVLHR,inactive
21,HGMVRCKSDQACDSMVGCVR,inactive
22,IFNGRDNLQLDVWLGGYFLV,inactive
23,TKKASSYQVDWFSCCWEYGA,0.708 ± 0.26

row,Substance,amyloid nucleation score
1,ICSVVIEGVFLRRLWDSRVS,inactive
2,MPEVCDLMDHIICVCYGYID,inactive
3,LSKRRTIILGLVELRYSEVE,inactive
4,TVRKHLLLDHKWYVVNSEIT,inactive
5,PLSPFYAAWDYMILCVG,inactive
6,MTLSVRMAEEQN,inactive
7,CSDNILEHYTSFYWLMSVHR,inactive
8,KWASFLFYFDVMSYSARELN,-0.32 ± 0.84
9,QIIYISSLFTYDSYYKFRLH,inactive
10,VFEHVGWNPHVRYTVNR,inactive
11,YYLVSSMFYMFQSNEVNGNM,inactive
12,SVSRRGKDR,-0.237 ± 1.5
13,WKYRMTQRPQMVNWNVLRYE,inactive
14,RSRAFGDGKNWMHCRRYVM,inactive
15,YYLGLLTYRWGLRFFYLIVS,inactive
16,ANGNNSLTATLTNAVD,inactive
17,DMSPRMTLSIKSA,inactive
18,FNSGCYT,inactive
19,YVKMWHGFYFDRGNGRRDLN,inactive
20,HTWFNFVYEVRSNKLTP,inactive
